# Substitutions are numbered along the chain they refer to.
# T1: human Activin A (R&D Systems) (human, UniProt P08476 311-426)
# T1 sequence (looked up): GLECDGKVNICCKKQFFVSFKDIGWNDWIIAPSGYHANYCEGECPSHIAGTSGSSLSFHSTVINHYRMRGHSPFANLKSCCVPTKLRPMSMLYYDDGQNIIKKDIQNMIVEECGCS
# T2: human myostatin (mature, recombinant; R&D Systems) (human, UniProt O14793 267-375)
# T2 sequence: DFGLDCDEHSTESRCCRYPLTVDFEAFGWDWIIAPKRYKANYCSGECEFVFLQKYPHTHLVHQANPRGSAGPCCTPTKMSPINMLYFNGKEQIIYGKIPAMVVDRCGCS
# T3: human BMP-11 (GDF-11; R&D Systems) (human, UniProt O95390 299-407)
# T3 sequence (looked up): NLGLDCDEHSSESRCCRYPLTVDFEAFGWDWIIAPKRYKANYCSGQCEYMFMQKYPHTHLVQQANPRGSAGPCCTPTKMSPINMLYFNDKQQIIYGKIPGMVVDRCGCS
# B1: 2987_B04 (designed binder)
# chain: MGVSDVPRDLEVVAATPTSLLISWSLPYPGHLNYYRITYGETGGNSPVQEFTVPGRGVTATISGLKPGVDYTITVYAVTLTKSKIIHYMPISINYRTEIDKPSQHHHHHH
# B2: 2987_B09 (designed binder)
# chain: B1 chain with S25T, Y28H, P29A, H31R, L32A, N33H, K82R
# B3: 2987_E03 (designed binder)
# chain: B1 chain with K82R
# B4: ATI-1340 [N-ethylmaleimide] (designed binder)
# chain: MGVSDVPRDLEVVAATPTSLLISWTLPHAGRAHYYRITYGETGGNSPVQEFTVPGRGVTATISGLKPGVDYTITVYAVTVTTTKVIHYKPISINYRTEGSGCHHHHHH
# modifications: N-ethylmaleimide on the Cys of the EGSGC tail
# notes: cysteine mutant of 2987_H07
# B5: 3007_B08 (designed binder)
# chain: MGVSDVPRDLEVVAATPTSLLISWSLPTPGLAHYYRITYGETGGNSPVQEFTVPGRGVTATISGLKPGVDYTITVYAVTVTHHGVIGYKPISINYRTEIDKPSQHHHHHH
# B6: 2987_C02 (designed binder)
# chain: B1 chain with P29A, L32A, N33H
# B7: 2987_F06 (designed binder)
# chain: B1 chain with Y28H, P29A, L32A, N33H, I85V
# B8: 2987_A06 (designed binder)
# chain: B1 chain with Y28H, P29A, L32A, N33H
# B9: 2987_F01 (designed binder)
# chain: B1 chain with P29A, L32A, N33H, K82R
# B10: 2987_G09 (designed binder)
# chain: B5 chain with S25T, T28H, P29A, L31R, T81S, H82S, H83T, G84K, G87V, K89L
# B11: 2987_G04 (designed binder)
# chain: B1 chain with I85V
# B12: 2987_E08 (designed binder)
# chain: B5 chain with S25T, T28H, P29A, L31R, T81S, H82S, H83T, G84K, G87H
# B13: 2987_H02 (designed binder)
# chain: B1 chain with P29A, L32A, N33H, I85V
# B14: 2987_D05 (designed binder)
# chain: B1 chain with Y28H, P29A, L32A, N33H, K82R
# B15: 3116_C06 (designed binder)
# chain: B5 chain with T28R, L31N, H82G, H83K, G84D, G87K
# B16: 3008_F01 (designed binder)
# chain: B5 chain with T28R, P29Q, H33N, H82A, H83A, G87I
# B17: 3008_B08 (designed binder)
# chain: B5 chain with T28H, P29A, L31D, H82R, H83A, V85F, I86Y, G87R
# B18: 3008_G01 (designed binder)
# chain: B5 chain with T28G, L31H, A32F, H82A, H83N, G84Q, V85P, G87I
# B19: 3008_D04 (designed binder)
# chain: B5 chain with T28H, P29N, L31V, H82R, H83E, G84E, G87S
# B20: 3146_A08 (designed binder)
# chain: B5 chain with T28N, L31N, H82D, H83T, V85F, G87T
# B21: 3007_C09 (designed binder)
# chain: B5 chain with T28H, P29R, L31V, H33N, V80L, H82G, H83A, G84N, G87I
# B22: 3008_G03 (designed binder)
# chain: B5 chain with T28H, A32G, V80I, H82P, H83E, G84T, V85I, G87V
# B23: 3116_C01 (designed binder)
# chain: B5 chain with T28N, L31I, V80L, H82G, H83S, G84D, V85T, G87F
# B24: 3008_A03 (designed binder)
# chain: B5 chain with T28H, P29H, L31F, A32G, H82A, H83T, V85I, G87I
# B25: 3007_C10 (designed binder)
# chain: B5 chain with T28S, P29S, L31V, H82N, H83T, G87I
# B26: 3115_E06 (designed binder)
# chain: MGVSDVPRDLEVVAATPTSLLISWDAPAGLARYYRITYGETGGNSPVQEFTVVGRGNTATISGLKPGVDYTITVYAVTIFRDGPVTWDPISINYRTEIDKPSQHHHHHH
# B27: 3116_H06 (designed binder)
# chain: B26 chain with P84V, T86N, W87Y, D88G
# B28: 3115_D04 (designed binder)
# chain: B26 chain with A28R, V53F, N57T, F80D, P84T, V85R, T86S, W87F
# B29: 3006_A10 (designed binder)
# chain: B26 chain with A28G, V53I, N57S, F80D, P84V, V85N, T86H, W87F, D88A
# B30: 3116_A07 (designed binder)
# chain: B26 chain with A28K
# Molecular target: T1, human Activin A (R&D Systems)
# Experiment: cell-based or functional assay
row,ARE-luciferase IC50 [nM],Binder
1,239,B1
2,172,B2
3,224,B3
4,324,B4
5,423,B5
6,464,B6
7,538,B7
8,283,B8
9,594,B9
10,> 2000,B10
11,171,B11
12,352,B12
13,794,B13
14,2000,B14
15,> 1000,B15
16,> 2000,B16
17,254,B17
18,> 2000,B18
19,720,B19
20,> 1000,B20
21,417,B21
22,> 2000,B22
23,1000,B23
24,> 2000,B24
25,> 2000,B25
26,> 1000,B26
27,> 1000,B27
28,> 1000,B28
29,> 2000,B29
30,> 1000,B30

# Molecular target: T2, human myostatin (mature, recombinant; …)
# Experiment: cell-based or functional assay
row,ARE-luciferase IC50 [nM],Binder
1,0.12,B1
2,0.01,B2
3,0.1,B3
4,0.05,B4
5,0.06,B5
6,0.06,B6
7,0.08,B7
8,0.1,B8
9,0.05,B9
10,0.05,B10
11,0.09,B11
12,0.05,B12
13,0.05,B13
14,0.11,B14
15,0.14,B15
16,0.08,B16
17,0.35,B17
18,0.03,B18
19,0.09,B19
20,0.7,B20
21,0.04,B21
22,0.09,B22
23,0.1,B23
24,0.11,B24
25,0.03,B25
26,0.07,B26
27,0.1,B27
28,0.16,B28
29,0.08,B29
30,0.04,B30

# Molecular target: T3, human BMP-11 (GDF-11; R&D Systems)
# Experiment: cell-based or functional assay
row,ARE-luciferase IC50 [nM],Binder
1,3.3,B1
2,0.92,B2
3,2.3,B3
4,4.87,B4
5,0.23,B5
6,7.1,B6
7,20,B7
8,23,B8
9,6.5,B9
10,0.91,B10
11,3.3,B11
12,2.8,B12
13,11,B13
14,2.4,B14
15,8.9,B15
16,0.12,B16
17,9.3,B17
18,0.31,B18
19,1.2,B19
20,48,B20
21,0.89,B21
22,1.3,B22
23,6.7,B23
24,22.6,B24
25,1,B25
26,2,B26
27,1.6,B27
28,3.6,B28
29,2,B29
30,0.5,B30

# Molecular target: T2, human myostatin (mature, recombinant; …)
# Experiment: competitive HTRF (1889E01/myostatin/ActRIIb-Fc sandwich)
# Excerpt: An HTRF assay was used to measure the binding affinities of anti-myostatin Adnectins to myostatin. […] The Eu-W 1024 labeled Streptavidin is used to bind biotinylated 1889E01. […] In the presence of a competitive Adnectin, the HTRF signal decreases.
row,IC50 [nM],Binder
1,0.16,B4
2,0.14,B5
3,0.18,B15
4,0.21,B16
5,0.37,B17
6,0.11,B18
7,0.14,B19
8,0.26,B20
9,0.14,B21
10,0.13,B22
11,0.35,B23
12,0.22,B24
13,0.14,B25
14,0.14,B26
15,0.13,B27
16,0.2,B28
17,0.15,B29
18,0.11,B30

# Molecular target: T2, human myostatin (mature, recombinant; …)
# Experiment: cell-based or functional assay
# Remark: another data set of the same source
pSmad2 % inhibition at 10 nM [%],"pSmad2 IC50, 4-point",Binder
97,,B5
,0.73 nM,B15
86,,B16
90,,B17
98,,B18
92,,B19
,0.78 nM,B20
80,,B21
91,,B22
,0.26 nM,B23
87,,B24
76,,B25
,60 pM,B26
,60 pM,B27
,60 pM,B28
51,,B29
,60 pM,B30

# Source: patent US20170088602A1 (Bristol-Myers Squibb, published 2017)
